The assay concerns the target zebrafish procaspase-3b (CP-C117S) (zebrafish (Danio rerio)). Kind of assay: SEC; Superdex75 Increase 10/300GL, 25 uM protein, 100 ul loaded, dialysed ~16 h at 25°C; citrate buffer pH 5, 6 and 6.5, phosphate buffer pH 7.5 and 8; column standardised with LMW calibration kit. Background: In gel filtration, larger molecules generally elute earlier.

As a reminder, the stoichiometry N is the number of molecules, sites or subunits per partner or assembly.

“zebrafish procaspase-3b (CP-C117S) (enzyme)” yielded a stoichiometry N of 2.

For the origin of these results see article PMC9208311.
